Test results taken from PMC3446985.

Target: human GRP78 (human) (UniProt P11021)
Experiment: AUC; sedimentation velocity, GRP78 alone at 0.4, 0.6 and 1.2 mg/mL, 28,000 rpm, 20°C, 20 mM sodium phosphate pH 7.0, 100 mM NaCl, 55 mM arginine, c(S) analysis; monomer to dimer

Sequence of human GRP78, P11021 19-654 (natural protein; other documents disagree on this pair) (P11021 19-654): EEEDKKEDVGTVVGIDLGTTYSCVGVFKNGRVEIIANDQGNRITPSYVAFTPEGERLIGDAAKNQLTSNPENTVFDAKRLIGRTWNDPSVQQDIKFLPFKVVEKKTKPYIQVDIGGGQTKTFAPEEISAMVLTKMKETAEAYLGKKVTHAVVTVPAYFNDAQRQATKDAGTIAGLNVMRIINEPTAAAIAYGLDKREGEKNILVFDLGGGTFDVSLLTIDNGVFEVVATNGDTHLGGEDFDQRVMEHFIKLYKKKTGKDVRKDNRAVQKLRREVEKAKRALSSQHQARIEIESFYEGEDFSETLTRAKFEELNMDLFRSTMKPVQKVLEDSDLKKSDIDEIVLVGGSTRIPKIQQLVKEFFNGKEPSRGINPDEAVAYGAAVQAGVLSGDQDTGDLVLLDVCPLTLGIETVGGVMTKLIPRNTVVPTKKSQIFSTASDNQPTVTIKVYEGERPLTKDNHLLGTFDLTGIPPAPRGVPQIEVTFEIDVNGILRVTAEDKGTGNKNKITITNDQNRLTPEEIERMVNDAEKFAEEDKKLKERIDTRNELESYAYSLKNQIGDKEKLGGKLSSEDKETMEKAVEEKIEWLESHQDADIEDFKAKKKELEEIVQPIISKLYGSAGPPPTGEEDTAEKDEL

stoichiometry N: 2
Substance: human GRP78, P11021 19-654 (natural protein; other documents disagree on this pair)
